Experiment [1] addresses human LILRB1 expressed on cells (Jurkat reporter cells; primary human cells; human CD8+ T cells) (human) (UniProt Q8NHL6). Put plainly: flow cytometry, control on LILRB1 expressed by primary human cells. (In flow cytometry, cells or beads pass a laser one at a time.)
Experiment [2] has the same target. The experiment in a line: cell-based or functional assay.
Experiment [3] has the same target. The experiment in a line: flow cytometry, hybridoma supernatant on LILRB1 expressed by primary human cells.
The target in experiment [4] is T1, Recombinant human LILRB1 (R&D Systems) (human, UniProt Q8NHL6 24-458, limits assumed).
T1 construct: Soluble analyte in the Octet assay
T1 sequence (Q8NHL6 24-458 limits assumed): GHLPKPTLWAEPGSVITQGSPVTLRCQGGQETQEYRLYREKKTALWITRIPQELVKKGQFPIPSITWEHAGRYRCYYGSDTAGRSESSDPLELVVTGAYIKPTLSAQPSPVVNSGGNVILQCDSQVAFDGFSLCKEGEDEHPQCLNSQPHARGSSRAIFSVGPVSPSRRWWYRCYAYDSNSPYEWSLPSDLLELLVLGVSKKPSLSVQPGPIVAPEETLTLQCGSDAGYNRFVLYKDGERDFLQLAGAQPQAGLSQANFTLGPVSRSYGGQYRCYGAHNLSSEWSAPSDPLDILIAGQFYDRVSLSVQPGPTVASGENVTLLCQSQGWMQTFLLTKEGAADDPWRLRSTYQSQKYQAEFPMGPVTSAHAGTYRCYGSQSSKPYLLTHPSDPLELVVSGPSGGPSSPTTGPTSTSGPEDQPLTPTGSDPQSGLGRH
Put plainly: BLI, ForteBio Octet HTX, antibody captured by anti-human Fc on SA sensors, soluble LILRB1 as analyte, 25 C, 1:1 model. Here is the method: Affinity was measured on ForteBio Octet HTX (Molecular Devices) using SA biosensors (cat 18-5010) using assay buffer comprised of 10 mM Tris, 0.1% TritonX, 150 mM NaCl, 1 mM CaCl₂), 1 mg/mL BSA, pH 7.4. Assay was conducted at 25° C. and 1:1 model was used to fit the curves. Biotinylated goat anti-human Fc at 0.75 ug/mL was captured on SA sensors and antibodies as unpurified but quantified hybridoma supernatant were loaded on the sensor at 2 ug/mL for 600 seconds. Recombinant human LILRB1 (R&D Systems) titrated 1:2 from 25 nM was allowed to bind for 5 minutes, then dissociation was measured for 20 minutes.
Background: Biolayer interferometry detects binding as a change in optical thickness at a sensor tip.

Isotype control (Table 2) (antibody): in experiment [1], the FACS GeoMean test 2 came to 359 and the FACS GeoMean, test 1 was 73.

B1: anti-LILRB1 antibody 30A10 (antibody, V domains shown)
VH: QVQLVESGGGVVQPGRSLRLSCAASGFTFSSYAMHWVRQAPGKGLEWVAIIWFDGSQRYYADSVKGRFTISRDNSRDTLYLQMNSLRAEDTAVYYCARDELTGFDYWGQGTLVTVSS
VL: DIQMTQSPSSLSASVGDRVTISCRASQNIINFLNWYQQKPGKAPKVLIDAASSLRSGVPSRFSGSGSETDFSLTISSLQPEDFATYYCQQSFSTPLTFGGGTKVEIRR
notes: Fully human antibody from XENOMOUSE mice, tested as hybridoma supernatant
What is called Kd is the concentration at which binding is half-saturated. One may read the koff as a measure of how fast the partners let go of each other. Usually kon stands for a measure of how fast the partners come together. Consider B1, for which, in experiment [2], the Potency (nM), n = 1 came to 0.062 nM and the Potency (nM), n = 2 turned out to be 0.042 nM. The molecule also gave an FACS GeoMean test 2 in experiment [3] of 2540. Further, in experiment [4], the Kd is 0.103 nM, the koff is 0.00012 s⁻¹ and the kon is 1.17e+06 M⁻¹ s⁻¹.

B2: anti-LILRB1 antibody 3C1 (antibody, human IgG4, lambda, V domains shown)
VH: EVQLVESGGGLVQPGGSLRLSCAASGFTFSDYDMHWVRQATGKGLEWVATIDTAGDTYYPDSVRGRFTISRENAKNSLSLQMNSLRAGDTAVYFCARDVPGTGFDHWGQGTLVTVSS
VL: SSELTQDPAVSVALGQTVRITCQGDSLRSYYESWYQQKPGQAPVLVIYGKNNRPSGIPDRFSGSISGNTASLTITGTQAEDEADYYCNSRDNSGDHWVFGGGTRLTVLG
notes: Fully human antibody from XENOMOUSE XMG4-K/XMG4-KL mice, tested as hybridoma supernatant
Regarding B2, in experiment [2], the Potency (nM), n = 1 was 0.04 nM and the Potency (nM), n = 2 was 0.024 nM. Also, the FACS GeoMean, test 1 in experiment [3] is 1750. In addition, in experiment [4], the Kd came to 0.168 nM, the koff was 0.000247 s⁻¹ and the kon was 1.47e+06 M⁻¹ s⁻¹.

B3: anti-LILRB1 antibody 19D6 (antibody, V domains shown)
VH: EVQLVESGGGLVQPGESLRLSCAASGFTFSDYDMHWVRQATGKGLEWVSAIDTAGDTYYLGPVKGRFTISRENAKNSLFLHMNSLRVGDTAVYYCIRDSGSSFDYWGQGTLVTVSS
VL: TSELTQDPAVSVALGQTVRITCQGDSLRNYYESWYQQKPGQAPVLVIYGKNNRPSGIPDRFSGSSSGNTASLIITGTQAEDEADYYCMSRDSSGNHWVFGGGTKVTVLG
notes: as for B1
Regarding B3, in experiment [2], the Potency (nM), n = 1 came out at 0.084 nM and the Potency (nM), n = 2 was determined as 0.095 nM. In experiment [3], this molecule showed an FACS GeoMean test 2 of 2540. Moreover, in experiment [4], the Kd came out at 0.176 nM, the koff amounted to 0.000206 s⁻¹ and the kon amounted to 1.17e+06 M⁻¹ s⁻¹.

The record behind these values is US20210301020A1 (Amgen, published 2021).
